Laboratory results reported in publication PMC5806882, “Structural and biochemical characterization of the biuret hydrolase (BiuH) from the cyanuric acid catabolism pathway of Rhizobium leguminasorum bv. viciae 3841” (PLoS ONE, 2018).

How the values were obtained:
[1] = biological target: the molecule itself; assay: crystal structure; X-ray structures of BiuH and variants; sitting drops at 20 °C; SeMet SAD, variants by molecular replacement; homotetramer in the asymmetric unit
[2] = biological target: the molecule itself; assay: SEC; Superdex 200 preparation grade, 130 mL column; 50 mM HEPES pH 7.5, 100 mM NaCl, later 50 mM Tris pH 7.5, 100 mM NaCl; elution compared with sizes expected for monomer, dimer, tetramer and octamer of BiuH

B1: BiuH Lys142Ala with N-carbamoyl-D,L-aspartic acid (enzyme)
chain: not shown
modifications: acyl (thiocarbamate) covalent complex between the deaminated inhibitor N-carbamoyl-D,L-aspartic acid and Cys175
notes: Biuret hydrolase BiuH, Rhizobium leguminosarum bv. viciae 3841, UniProt Q1M7F4, with Lys142Ala; also called K142A; Lys142Ala variant; source: E. coli BL21 (λDE3), purified (Ni-NTA, SEC)
stoichiometry N [1]: 4

B2: BiuH Cys175Ser (enzyme)
chain: not shown
notes: Biuret hydrolase BiuH, Rhizobium leguminosarum bv. viciae 3841, UniProt Q1M7F4, with Cys175Ser; Crystallised without (6AZN) and with biuret (6AZQ); also called C175S; Cys175Ser BiuH variant; source: E. coli BL21 (λDE3), purified (Ni-NTA, SEC)
stoichiometry N [1]: 4

B3: BiuH Lys142His (enzyme)
chain: not shown
notes: Biuret hydrolase BiuH, Rhizobium leguminosarum bv. viciae 3841, UniProt Q1M7F4, with Lys142His; also called K142H; source: E. coli BL21 (λDE3), purified (Ni-NTA, SEC)
stoichiometry N [1]: 4

B4: BiuH wild type (biuret hydrolase from Rhizobium leguminosarum bv. viciae 3841) (enzyme)
chain: not shown
notes: Biuret hydrolase BiuH, Rhizobium leguminosarum bv. viciae 3841; synthetic gene encoding a protein identical to UniProt Q1M7F4; Size exclusion followed Ni-NTA directly in the purification, so the tag was probably still on the protein; also called BiuH WT; biuret amidohydrolase; source: E. coli BL21 (λDE3), purified (Ni-NTA, SEC)
stoichiometry N [2]: 4

B5: SeMet BiuH wild-type (seleno-L-methionine biuret hydrolase from Rhizobium leguminosarum bv. viciae 3841) (enzyme)
chain: not shown
modifications: selenomethionine in place of methionine
notes: Biuret hydrolase BiuH, Rhizobium leguminosarum bv. viciae 3841; synthetic gene encoding a protein identical to UniProt Q1M7F4; His-tag removed in situ with chymotrypsin, without further purification; also called biuret amidohydrolase; source: E. coli BL21 (λDE3), minimal medium with SeMet, purified (Ni-NTA, SEC); in situ chymotrypsin treatment in the crystallisation drop
stoichiometry N [1]: 4
